The target of this assay is human CD205 (human). Kind of assay: cell-based or functional assay.

B1: 16A5(CD205_A1), DM4-conjugated anti-CD205 (anti-LY75) monoclonal antibody (antibody, V domains shown)
VH: EVQLVESGGGLVKPGGSLRLSCAASGFTYSNAWMSWVRQAPGKGLEWVGRIKSKTDGGTTDYAAPVQGRFTISRDDSKNTLYLQMNSLKTEDTAVYYCTIFGVVSFDYWGQGTLVTVSS
VL: DVQMTQSPSSLSASVGDRVTITCRASQSISDYLSWYQQRPGKAPNLLIYAASNLKTGVPSRFSGSGSGTDFTLTISTLQPEDFATYYCQQSYRSPWTFGQGTKVEIKR
modifications: conjugated to maytansinoid DM4; attachment residues not stated
For B1, the “EC50 of cytotoxicity on Raji cells (Cell-Titer Glo, 96 h)” value is 0.728 nM and the “EC50 of cytotoxicity on THP1 cells (Cell-Titer Glo, 96 h)” value is 0.0375 nM.

The values above are taken from patent CN117715654A (OXFORD BIOTHERAPEUTICS LTD, dated 2024).
